Test results: PMC11169542, “A probe for NIR-II imaging and multimodal analysis of early Alzheimer’s disease by targeting CTGF” (Nature Communications, 2024)
Ends that are not written are not given here.

Experiments:
[1] = test system: U87MG cells; assay: Cytotoxicity of DGC (CCK-8); type: cell-based, human; set-up: key to Cell viability: viability relative to control cells (control = 1); conditions: for Cell viability: 24 h, CCK-8, normalized to control
Procedure: (§1) U87MG, SH-SY5Y, and CTX TNA2 cells were seeded into 96-well plates at a density of 5 × 10^3 cells per well and were incubated at 37 °C for 24 h. […] Next, 10 µL of a colorimetric Cell Counting Kit (CCK-8) reagent diluted with 100 µL medium was added to each well, and incubated for 30 min, The absorbance at 450 nm was measured using a microplate reader (Molecular Devices, San Jose, CA, USA). The relative viability was normalized to control cells. The experiment was performed in triplicates.

[2] = test system: SH-SY5Y cells; assay: Cytotoxicity of DGC (CCK-8); type: cell-based; set-up: key to Cell viability: viability relative to control cells (control = 1); conditions: for Cell viability: 24 h, CCK-8, normalized to control
Procedure: as §1

[3] = molecular target: T1, CTGF (Mus musculus, UniProt P29268); assay: DAB chromogenic imaging of DGC-labelled mouse brain sections; set-up: species or system APP/PS1 and wild-type C57BL/6J mice; conditions: 200 μM DGC + DAB
T1 construct: brain sections of the age-matched wild-type C57BL/6J mice were used as controls; from tissue; host or cells: brain of APP/PS1 transgenic and wild-type C57BL/6J mice (sections, living animal, perfused isolated brain)
T1 sequence (P29268 26-348): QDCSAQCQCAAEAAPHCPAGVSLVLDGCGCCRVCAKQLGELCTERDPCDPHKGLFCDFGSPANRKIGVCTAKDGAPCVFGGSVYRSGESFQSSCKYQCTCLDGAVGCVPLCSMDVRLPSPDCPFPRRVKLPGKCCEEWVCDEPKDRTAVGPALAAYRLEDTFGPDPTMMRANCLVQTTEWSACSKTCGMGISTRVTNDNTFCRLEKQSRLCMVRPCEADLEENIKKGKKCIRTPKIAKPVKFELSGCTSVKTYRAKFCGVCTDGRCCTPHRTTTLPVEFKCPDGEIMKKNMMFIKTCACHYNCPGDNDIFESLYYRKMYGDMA
Procedure: To observe the expression level of CTGF in the brain section with the naked eye, we optimized the conditions for labeling WT mice, 3-month-old APP/PS1 mice and 9-month-old APP/PS1 mice stained with DGC. According to the study, the optimal incubation concentration of DGC (200 μM) was used to determine the conditions using the DAB Horseradish Peroxidase Color Development Kit. After the brain sections were co-stained by DGC (200 μM) at 4 °C overnight, a DAB chromogenic agent was added to the brain sections. […] After the brown product was imaged by optical microscopy and analyzed by Image Pro Plus software.

[4] = molecular target: T1, CTGF; assay: Ex vivo NIR-II imaging of perfused brains after DGC injection; type: in vivo, APP/PS1 mice; conditions: 20 mg/kg i.v., saline perfusion, relative to 1 month
Procedure: Mice were then perfused intracardially with saline and 4% PFA, and major organs (including the brain, heart, liver, spleen, lung, and kidney were isolated. The dissociated brains were performed NIR-II imaging ex vivo using the same method as in vivo imaging (n = 3). All isolated organs were also imaged by the NIR-II imaging system (λ ex = 808 nm, 1000 nm longpass (LP) filter (Edmund Optics)). And then, the brains were kept in 4% PFA overnight and embedded with paraffin. Sections with 5-μm thickness were cut and analyzed by immunostaining with antibodies to CTGF (dilution 1: 50, Abcam, Cat#ab6992), GFAP (dilution 1:100, Proteintech, Cat#16825-1-AP), CD31 (dilution 1:200, Beyotime, Cat#AF6408), Neun (dilution 1:300, abcam, Cat# ab177487), and Iba 1 (dilution 1:50, Beyotime, Cat# AF7143), respectively.

[5] = test system: CTX TNA2 cells; assay: Cytotoxicity of DGC (CCK-8); type: cell-based; set-up: key: viability relative to control cells (control = 1); conditions: 200 μM (Au content), 24 h, CCK-8, normalized to control
[6] = 10 μM (Au content), replicate 1
[7] = 10 μM (Au content), replicate 2
[8] = 10 μM (Au content), replicate 3
[9] = 20 μM (Au content), replicate 1
[10] = 20 μM (Au content), replicate 2
[11] = 20 μM (Au content), replicate 3
[12] = 50 μM (Au content), replicate 1
[13] = 50 μM (Au content), replicate 2
[14] = 50 μM (Au content), replicate 3
[15] = 100 μM (Au content), replicate 1
[16] = 100 μM (Au content), replicate 2
[17] = 100 μM (Au content), replicate 3
[18] = 200 μM (Au content), replicate 1
[19] = 200 μM (Au content), replicate 2
[20] = 200 μM (Au content), replicate 3
[21] = 500 μM (Au content), replicate 1
[22] = 500 μM (Au content), replicate 2
[23] = 500 μM (Au content), replicate 3

## DGC: CTGF-targeting peptide-coated gold nanocluster: one Au26 gold nanocluster coated by eight DAG cyclic peptides, NIR-II and red fluorescence (CDAGRKQKC; also: cyclic peptide, ring not given here, eight peptides on one Au26 nanocluster via Cys Au-S bonds)
[1]; 5 μM (Au content), replicate 1
  Cell viability: 1.188
[1]; 5 μM (Au content), replicate 2
  Cell viability: 1.205
[1]; 5 μM (Au content), replicate 3
  Cell viability: 1.21
[1]; [6]
  Cell viability: 1.185
[1]; [7]
  Cell viability: 1.16
[1]; [8]
  Cell viability: 1.163
[1]; [9]
  Cell viability: 1.112
[1]; [10]
  Cell viability: 1.134
[1]; [11]
  Cell viability: 1.136
[1]; [12]
  Cell viability: 1.152
[1]; [13]
  Cell viability: 1.117
[1]; [14]
  Cell viability: 1.103
[1]; [15]
  Cell viability: 1.07
[1]; [16]
  Cell viability: 1.085
[1]; [17]
  Cell viability: 1.085
[1]; [18]
  Cell viability: 1.067
[1]; [19]
  Cell viability: 1.053
[1]; [20]
  Cell viability: 1.071
[1]; [21]
  Cell viability: 1.0892
[1]; [22]
  Cell viability: 1.102
[1]; [23]
  Cell viability: 1.058
[1]; DGC incubation 24 h, CCK-8
  cytotoxicity: did not cause any obvious cytotoxicity
[2]; 5 μM (Au content), replicate 1
  Cell viability: 1.078
[2]; 5 μM (Au content), replicate 2
  Cell viability: 1.039
[2]; 5 μM (Au content), replicate 3
  Cell viability: 1.074
[2]; [6]
  Cell viability: 0.9372
[2]; [7]
  Cell viability: 1.045
[2]; [8]
  Cell viability: 1.038
[2]; [9]
  Cell viability: 1.029
[2]; [10]
  Cell viability: 1.021
[2]; [11]
  Cell viability: 1.039
[2]; [12]
  Cell viability: 1.012
[2]; [13]
  Cell viability: 1.009
[2]; [14]
  Cell viability: 1.025
[2]; [15]
  Cell viability: 0.9429
[2]; [16]
  Cell viability: 0.9751
[2]; [17]
  Cell viability: 1.036
[2]; [18]
  Cell viability: 0.977
[2]; [19]
  Cell viability: 1.039
[2]; [20]
  Cell viability: 0.9912
[2]; [21]
  Cell viability: 0.9817
[2]; [22]
  Cell viability: 0.9959
[2]; [23]
  Cell viability: 1.057
[2]; DGC incubation 24 h, CCK-8
  cytotoxicity: did not cause any obvious cytotoxicity
[3]; 3-month-old APP/PS1 mouse brain section, section 1
  DAB chromogenic imaging intensity: 0.198
[3]; 3-month-old APP/PS1 mouse brain section, section 2
  DAB chromogenic imaging intensity: 0.151
[3]; 3-month-old APP/PS1 mouse brain section, section 3
  DAB chromogenic imaging intensity: 0.127
[3]; 9-month-old APP/PS1 mouse brain section, section 1
  DAB chromogenic imaging intensity: 0.282
[3]; 9-month-old APP/PS1 mouse brain section, section 2
  DAB chromogenic imaging intensity: 0.35
[3]; 9-month-old APP/PS1 mouse brain section, section 3
  DAB chromogenic imaging intensity: 0.237
[3]; WT mouse brain section, Image Pro Plus, section 1
  DAB chromogenic imaging intensity: 0.03
[3]; WT mouse brain section, Image Pro Plus, section 2
  DAB chromogenic imaging intensity: 0.061
[3]; WT mouse brain section, Image Pro Plus, section 3
  DAB chromogenic imaging intensity: 0.019
[4]; 1-month-old APP/PS1 mice, brain 1
  ex vivo NIR-II fluorescence (FL) intensity in brain: 1
[4]; 1-month-old APP/PS1 mice, brain 2
  ex vivo NIR-II fluorescence (FL) intensity in brain: 1
[4]; 1-month-old APP/PS1 mice, brain 3
  ex vivo NIR-II fluorescence (FL) intensity in brain: 1
[4]; 2-month-old APP/PS1 mice, brain 1
  ex vivo NIR-II fluorescence (FL) intensity in brain: 1.473
[4]; 2-month-old APP/PS1 mice, brain 2
  ex vivo NIR-II fluorescence (FL) intensity in brain: 1.458
[4]; 2-month-old APP/PS1 mice, brain 3
  ex vivo NIR-II fluorescence (FL) intensity in brain: 1.501
[4]; 3-month-old APP/PS1 mice, brain 1
  ex vivo NIR-II fluorescence (FL) intensity in brain: 1.722
[4]; 3-month-old APP/PS1 mice, brain 2
  ex vivo NIR-II fluorescence (FL) intensity in brain: 1.714
[4]; 3-month-old APP/PS1 mice, brain 3
  ex vivo NIR-II fluorescence (FL) intensity in brain: 1.766
[4]; 6-month-old APP/PS1 mice, brain 1
  ex vivo NIR-II fluorescence (FL) intensity in brain: 2.766
[4]; 6-month-old APP/PS1 mice, brain 2
  ex vivo NIR-II fluorescence (FL) intensity in brain: 2.744
[4]; 6-month-old APP/PS1 mice, brain 3
  ex vivo NIR-II fluorescence (FL) intensity in brain: 2.849
[4]; 9-month-old APP/PS1 mice, brain 1
  ex vivo NIR-II fluorescence (FL) intensity in brain: 3.728
[4]; 9-month-old APP/PS1 mice, brain 2
  ex vivo NIR-II fluorescence (FL) intensity in brain: 3.62
[4]; 9-month-old APP/PS1 mice, brain 3
  ex vivo NIR-II fluorescence (FL) intensity in brain: 3.948
[5]; replicate 1
  Cell viability: 1.4709
[5]; replicate 2
  Cell viability: 1.567
[5]; replicate 3
  Cell viability: 1.589
